Source: PMC4783044, “Stoichiometry and Change of the mRNA Closed-Loop Factors as Translating Ribosomes Transit from Initiation to Elongation” (PLoS ONE, 2016)
Read-outs that look alike come from different tables or passages of the source.

Key:
eIF4E-Flag [1] = biological target: T1, eIF4E-Flag (yeast, UniProt P07260 1-213); assay: co-IP + AUC; one-step anti-Flag bead purification from yeast crude extract (Tris pH 7.5, 0.15 M KCl, 2 mM MgCl2, 10% glycerol, 4°C), Flag peptide elution, then AU-FDS of the GFP fusion with AU-A230 or AU-A260 (20°C, 15,000 rpm); material migrating at 77S (monosomal translating complex); cycloheximide added to cells; cells on glucose (elongation), or glucose depleted 10 min and glucose added back for 1 min or 0 min (initiation)
T1 sequence (looked up): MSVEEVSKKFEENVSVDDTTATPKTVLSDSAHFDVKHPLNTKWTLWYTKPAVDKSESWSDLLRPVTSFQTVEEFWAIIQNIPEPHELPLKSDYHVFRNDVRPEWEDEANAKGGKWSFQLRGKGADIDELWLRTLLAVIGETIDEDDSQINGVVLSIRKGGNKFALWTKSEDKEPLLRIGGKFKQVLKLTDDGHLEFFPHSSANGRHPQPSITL

Flag-PAB1 [2] = biological target: T2, Flag-PAB1 (yeast, UniProt P04147 1-577); assay: as above
T2 sequence (looked up): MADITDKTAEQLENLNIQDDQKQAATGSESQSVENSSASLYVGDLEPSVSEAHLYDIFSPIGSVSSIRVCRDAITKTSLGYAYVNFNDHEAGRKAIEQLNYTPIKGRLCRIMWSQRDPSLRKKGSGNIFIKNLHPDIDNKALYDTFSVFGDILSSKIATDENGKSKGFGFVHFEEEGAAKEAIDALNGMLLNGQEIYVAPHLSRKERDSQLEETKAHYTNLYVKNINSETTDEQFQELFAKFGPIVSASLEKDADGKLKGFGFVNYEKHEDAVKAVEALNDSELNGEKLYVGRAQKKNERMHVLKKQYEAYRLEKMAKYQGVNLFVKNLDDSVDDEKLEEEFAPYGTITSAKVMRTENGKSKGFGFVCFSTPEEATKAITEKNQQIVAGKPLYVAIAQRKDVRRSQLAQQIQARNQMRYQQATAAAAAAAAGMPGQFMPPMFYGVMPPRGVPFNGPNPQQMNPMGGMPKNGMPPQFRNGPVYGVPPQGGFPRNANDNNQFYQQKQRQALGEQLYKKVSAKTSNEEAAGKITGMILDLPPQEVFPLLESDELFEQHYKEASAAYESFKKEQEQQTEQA

eIF4E-Flag [3] = biological target: T1, eIF4E-Flag; assay: co-IP + AUC; as a1, but material migrating from 90S to 200S (polysomal translating complexes); cells on glucose (elongation), or glucose depleted 10 min and glucose added back for 1 min (initiation)
Flag-PAB1 [4] = biological target: T2, Flag-PAB1; assay: as above
Flag-SBP1 (yeast) = Flag-SBP1 (yeast) (UniProt P10080); assay: co-IP + AUC; one-step anti-Flag bead purification from yeast crude extract (Tris pH 7.5, 0.15 M KCl, 2 mM MgCl2, 10% glycerol, 4°C), Flag peptide elution, then AU-FDS of the GFP fusion with AU-A230 or AU-A260 (20°C, 15,000 rpm); material migrating at 77S (monosomal translating complex); cycloheximide added to cells; cells on glucose (elongation), or glucose depleted 10 min and glucose added back for 1 min or 0 min (initiation)
Flag-SBP1 (yeast), sequence (P10080 whole entry, the tested form may be a part): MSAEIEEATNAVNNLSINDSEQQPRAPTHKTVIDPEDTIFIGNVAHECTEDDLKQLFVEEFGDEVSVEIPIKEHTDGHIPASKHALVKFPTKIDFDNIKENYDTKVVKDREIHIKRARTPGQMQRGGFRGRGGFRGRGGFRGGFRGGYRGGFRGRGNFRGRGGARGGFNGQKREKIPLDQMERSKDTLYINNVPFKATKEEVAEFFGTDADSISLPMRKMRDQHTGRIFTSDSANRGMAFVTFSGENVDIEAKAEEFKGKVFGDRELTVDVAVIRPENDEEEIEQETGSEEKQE

eIF4E-Flag [5] = biological target: T1, eIF4E-Flag; assay: co-IP + AUC; one-step anti-Flag bead purification from yeast crude extract (Tris pH 7.5, 0.15 M KCl, 2 mM MgCl2, 10% glycerol, 4°C), Flag peptide elution, then AU-FDS of the GFP fusion with AU-A230 or AU-A260 (20°C, 15,000 rpm); material migrating at 77S (monosomal translating complex); cycloheximide added to cells; cells on glucose (elongation), or glucose depleted 10 min and glucose added back for 1 min or 0 min …; conditions: partners not purified
Flag-PAB1 [6] = biological target: T2, Flag-PAB1; assay: as above; conditions: partners not purified

SBP1-GFP (from UniProt P10080 1-294) (natural protein)
relative level in the 77S monosomal translating complex, mRNA set at 100 (elongation) (eIF4E-Flag [1]): < 0.3 per 100 mRNA | relative level in the 77S monosomal translating complex, mRNA set at 100 (elongation) (Flag-PAB1 [2]): 2.1 per 100 mRNA | relative level in the 77S monosomal translating complex, mRNA set at 100 (initiation) (Flag-PAB1 [2]): 3.3 per 100 mRNA | relative level in the polysomal translating complexes (90S to 200S), mRNA set at 100 (elongation) (eIF4E-Flag [3]): < 0.3 per 100 mRNA | percent of the polyadenylated polysomes that contain SBP1 (Flag-PAB1 [4]): 8.6% | relative level in the polysomal translating complexes (90S to 200S), mRNA set at 100 (elongation) (Flag-PAB1 [4]): 8.3 per 100 mRNA | relative level in the polysomal translating complexes (90S to 200S), mRNA set at 100 (initiation) (Flag-PAB1 [4]): 11 per 100 mRNA

eRF1-GFP (from UniProt P12385 1-437) (natural protein)
relative level in the 77S monosomal translating complex, mRNA set at 100 (elongation) (eIF4E-Flag [1]): 2.8 per 100 mRNA | relative level in the 77S monosomal translating complex, mRNA set at 100 (elongation) (Flag-SBP1 (yeast)): < 0.3 per 100 mRNA | relative level in the 77S monosomal translating complex, mRNA set at 100 (elongation) (Flag-PAB1 [2]): 0.97 per 100 mRNA | relative level in the 77S monosomal translating complex, mRNA set at 100 (initiation) (Flag-PAB1 [2]): 0.97 per 100 mRNA | relative level in the polysomal translating complexes (90S to 200S), mRNA set at 100 (elongation) (eIF4E-Flag [3]): < 0.3 per 100 mRNA | relative level in the polysomal translating complexes (90S to 200S), mRNA set at 100 (elongation) (Flag-PAB1 [4]): < 0.3 per 100 mRNA | relative level in the polysomal translating complexes (90S to 200S), mRNA set at 100 (initiation) (Flag-PAB1 [4]): < 0.3 per 100 mRNA

B1: eIF4G2-GFP (natural protein, yeast, UniProt P39936 1-914, looked up)
chain: MTDQRGPPPPHPQQANGYKKFPPHDNQYSGANNSQPNNHYNENLYSAREPHNNKQYQSKNGKYGTNKYNNRNNSQGNAQYYNNRFNNGYRLNNNDYNPAMLPGMQWPANYYAPQMYYIPQQMVPVASPPYTHQPLNTNPEPPSTPKTTKIEITTKTGERLNLKKFHEEKKASKGEEKNDGVEQKSKSGTPFEKEATPVLPANEAVKDTLTETSNEKSTSEAENTKRLFLEQVRLRKAAMERKKNGLISETEKKQETSNHDNTDTTKPNSVIESEPIKEAPKPTGEANEVVIDGKSGASVKTPQHVTGSVTKSVTFNEPENESSSQDVDELVKDDDTTEISDTTGGKTVNKSDDETINSVITTEENTVKETEPSTSDIEMPTVSQLLETLGKAQPISDIYEFAYPENVERPDIKYKKPSVKYTYGPTFLLQFKDKLKFRPDPAWVEAVSSKIVIPPHIARNKPKDSGRFGGDFRSPSMRGMDHTSSSRVSSKRRSKRMGDDRRSNRGYTSRKDREKAAEKAEEQAPKEEIAPLVPSANRWIPKSRVKKTEKKLAPDGKTELFDKEEVERKMKSLLNKLTLEMFDSISSEILDIANQSKWEDDGETLKIVIEQIFHKACDEPHWSSMYAQLCGKVVKDLDPNIKDKENEGKNGPKLVLHYLVARCHEEFEKGWADKLPAGEDGNPLEPEMMSDEYYIAAAAKRRGLGLVRFIGYLYCLNLLTGKMMFECFRRLMKDLNNDPSEETLESVIELLNTVGEQFEHDKFVTPQATLEGSVLLDNLFMLLQHIIDGGTISNRIKFKLIDVKELREIKHWNSAKKDAGPKTIQQIHQEEEQLRQKKNSQRSNSRFNNHNQSNSNRYSSNRRNMQNTQRDSFASTKTGSFRNNQRNARKVEEVSQAPRANMFDALMNNDGDSD
notes: eIF4G2 of yeast, GFP fusion; The printed name puts GFP after the protein; also called TIF4632-GFP; source: yeast strain RP2384 (TIF4632-GFP::G418), in crude extract
relative level in the 77S monosomal translating complex, mRNA set at 100 (elongation) (Flag-SBP1 (yeast)): < 0.3 per 100 mRNA | relative level in the 77S monosomal translating complex, mRNA set at 100 (elongation) (eIF4E-Flag [5]): 15 per 100 mRNA | relative level in the 77S monosomal translating complex, mRNA set at 100 (initiation) (eIF4E-Flag [5]): 15 per 100 mRNA | relative level in the 77S monosomal translating complex, mRNA set at 100 (elongation) (Flag-PAB1 [6]): 3.9 per 100 mRNA | relative level in the 77S monosomal translating complex, mRNA set at 100 (initiation) (Flag-PAB1 [6]): 6.2 per 100 mRNA | relative level in the polysomal translating complexes (90S to 200S), mRNA set at 100 (elongation) (eIF4E-Flag [3]; partners not purified): 61 per 100 mRNA | relative level in the polysomal translating complexes (90S to 200S), mRNA set at 100 (initiation) (eIF4E-Flag [3]; partners not purified): 56 per 100 mRNA | relative level in the polysomal translating complexes (90S to 200S), mRNA set at 100 (elongation) (Flag-PAB1 [4]; partners not purified): 9.4 per 100 mRNA | relative level in the polysomal translating complexes (90S to 200S), mRNA set at 100 (initiation) (Flag-PAB1 [4]; partners not purified): 13 per 100 mRNA
